Source: US20230123178A1 (Hoffmann-La Roche, published 2023)

Experiments:
[1] = molecular target: T1, full-length human PD1 on cells (human, UniProt Q15116 25-288); experiment: cell-based or functional assay
[2] = molecular target: T1, full-length human PD1 on cells; experiment: flow cytometry, activated human PBMCs, CD8 T cells
Method: (§1) Cells were further incubated for 2 days at 37° C. and 5% CO₂
(§2) For the binding assay 0.1×10⁶ fresh or activated PBMCs were added to each well of a round-bottom suspension cell 96-well plates (greiner bio-one, cellstar, Cat. No. 650185). Plates were centrifuged 5 minutes with 350×g and at 4° C. and supernatant were discarded. Afterwards cells were stained in 100 μL/well DPBS containing 1:5000 diluted fixable viability dye eF660 (eBioscience, Cat.-No. 65-0864-18) for 30 minutes at 4° C. in the dark. Cells were washed once with 200 μL ice cold cold DPBS buffer. Next, 50 μL/well of 4° C. cold FACS buffer (DPBS supplied with 2% FBS, 5 mM EDTA pH8 (Amresco, Cat. No. E177) and 7.5 mM Sodium azide (Sigma-Aldrich, Cat.-No. S2002)) containing titrated concentrations of construct 7.1, construct 7.3, construct 7.5 and construct 7.6 and as controls control B, control C, control D, control M and control F were added and cells were incubated for 60 minutes at 4° C., washed three times with 200 μL/well 4° C. FACS buffer. […] Data was analyzed using FlowJo V10 (FlowJo, LLC) and GraphPad Prism 6.04 (GraphPad Software, Inc)

[3] = molecular target: T1, full-length human PD1 on cells; experiment: flow cytometry, activated human PBMCs, CD4 T cells
Method: as §1, §2

[4] = molecular target: T1, full-length human PD1 on cells; experiment: flow cytometry on CHO-K1-huPD1 clone 5 cells
Excerpt: For binding assays on PD1 and 4-1BB expressing tumor cells two genetically modified tumor cells were used. The generation of human expressing HeLa-hu4-1BB-NFκB-luc clone 26 cells will be described in Example 5.3.1. For human PD1 expressing tumor cell lines, CHO-k1 cells were transfected with human PD1 as following: parental adherent CHO-K1 cell line (ATCC CCL-61) was stably transfected with plasmid 15311_hPD1-fl_pUC_Neo coding for full-length human PD1 and selection with G418 (Neomycin resistance marker on plasmid).
0.1×10⁶ tumor cells resuspended in DPBS (Gibco by Life Technologies, Cat. No. 14190 326) were added to each well of a round-bottom suspension cell 96-well plates (greiner bio-one, cellstar, Cat. No. 650185). Cells were washed once with 200 μL DPBS. Cells were resuspended in 100 μL/well of 4° C. cold DPBS buffer containing 1:5000 diluted Fixable Viability Dye eFluor 660 (eBioscience, Cat. No. 65-0864-18) and plates were incubated for 30 minutes at 4° C. […] Data was analyzed using FlowJo V10 (FlowJo, LLC) and GraphPad Prism 6.04 (GraphPad Software, Inc).
(§3) Gates were set on living tumor cells and geo means of fluorescence intensity of PE-conjugated AffiniPure anti-human IgG IgG Fcγ-fragment-specific goat F(ab′)2 fragment were blotted against the titrated concentration of PD1-targeted 4-1BB split trimeric ligand Fc fusion antigen binding molecules or their controls.

[5] = molecular target: T1, full-length human PD1 on cells; experiment: flow cytometry, activated human PBMCs, γδ T cells
Method: as §1, §2

[6] = molecular target: T2, human 4-1BB on cells (human, UniProt Q07011 24-255); experiment: flow cytometry on HeLa-huCD137-NFkB-luc clone 26 cells; PE-conjugated anti-human IgG secondary; geo mean
T2 construct: whole, on cells; also called HeLa-hu4-1BB-NFkB-luc clone 26; HeLa-huCD137-NFkB-luc clone 26 cells
T2 sequence (Q07011 24-255): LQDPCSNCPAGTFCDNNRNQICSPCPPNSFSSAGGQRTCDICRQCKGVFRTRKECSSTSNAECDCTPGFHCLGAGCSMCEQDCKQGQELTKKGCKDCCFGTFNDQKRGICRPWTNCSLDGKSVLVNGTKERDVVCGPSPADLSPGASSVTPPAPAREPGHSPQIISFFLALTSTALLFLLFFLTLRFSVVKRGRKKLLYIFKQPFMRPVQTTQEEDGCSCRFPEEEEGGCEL
Method: Cells were washed once with 200 μL DPBS. Cells were resuspended in 100 μL/well of 4° C. cold DPBS buffer containing 1:5000 diluted Fixable Viability Dye eFluor 660 (eBioscience, Cat. No. 65-0864-18) and plates were incubated for 30 minutes at 4° C. Cells were washed once with 200 μL/well 4° C. cold DPBS buffer and resuspended in 50 μL/well of 4° C. cold FACS buffer (DPBS supplied with 2% FBS, 5 mM EDTA pH8 (Amresco, Cat. No. E177) and 7.5 mM Sodium azide (Sigma-Aldrich S2002)) containing PD1-targeted 4-1BB split trimeric ligand Fc fusion antigen binding molecules at a series of concentrations, followed by incubation for 1 hour at 4° C. After extensive washing, cells were further stained with 50 μL/well of 4° C. cold FACS buffer containing 5 μg/mL PE-conjugated AffiniPure anti-human IgG F(ab′)2-fragment-specific goat F(ab′)2 fragment (Jackson ImmunoResearch, Cat. No. 109 116 098) for 30 minutes at 4° C. Cells were washed twice with 200 μL/well 4° C. […] Data was analyzed using FlowJo V10 (FlowJo, LLC) and GraphPad Prism 6.04 (GraphPad Software, Inc).
as §3

[7] = molecular target: T1, full-length human PD1 on cells; experiment: flow cytometry, freshly isolated resting human PBMCs (table title), γδ T cells
Method: as §2

[8] = molecular target: T1, full-length human PD1 on cells; experiment: flow cytometry, freshly isolated resting human PBMCs (table title), CD4 T cells
Method: as §2

[9] = molecular target: T1, full-length human PD1 on cells; experiment: flow cytometry, activated human PBMCs, CD19 cells
Method: as §1, §2

T1 sequence (Q15116 25-288 limits assumed): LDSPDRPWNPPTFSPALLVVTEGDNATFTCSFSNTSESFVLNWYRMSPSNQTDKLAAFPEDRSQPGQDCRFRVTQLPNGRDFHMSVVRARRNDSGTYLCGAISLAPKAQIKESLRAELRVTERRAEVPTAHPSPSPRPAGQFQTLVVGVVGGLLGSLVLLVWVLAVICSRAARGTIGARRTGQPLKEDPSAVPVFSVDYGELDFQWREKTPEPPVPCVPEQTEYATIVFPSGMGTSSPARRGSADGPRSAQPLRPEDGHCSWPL

B1: PD1-0050 (antibody, V domains shown)
VH: DVQLQESGPGLVKPSQSLSLTCTVTGYSITSDYAWNWIRQFPGNKLEWMGYITYTGRTSYNPSLKSRISITRDTSKNQFFLQLNSVTTEDTATYYCAREMDYYGSTLDYWGQGTTLTVSS
VL: KIVLTQSPASLAVSLRQRATISCRASESVDRYGNSFIHWYQQKPGQPPKVLIYRASNLESGFPARFSGSGSRTDFTLTIDPVEADDAATYYCQQNNEDPYTFGSGTKLEIK
Percentage of IFN gamma secretion in MLR against rec hu IL-2 (=100%), dilution 1:12 [1]: 136%
Percentage of IFN gamma secretion in MLR against rec hu IL-2 (=100%), dilution 1:120 [1]: 96%
Percentage of IFN gamma secretion in MLR against rec hu IL-2 (=100%), dilution 1:1200 [1]: 33%

B2: PD1-0073 (antibody, V domains shown)
VH: EVKLVESGGGLVKPGGSLKLSCAASGFTFSNYGMSWIRQTPEKGLEWVATISGGGRDTYYPDSVKGRFTISRDNVKNNLYLQMSSLRSEDTAFYYCASYYYGIDYWGQGTSVTVSS
VL: DIVMTQPHKFMSTSVGDRVRITCKASQDVTTAVAWYQQKPGQSPKLLIYWASTRHTGVPDRFTGSGSGTEFTLTISSVQAEDLALYYCQQHYSIPWTFGGGTKLEIK
Percentage of IFN gamma secretion in MLR against rec hu IL-2 (=100%), dilution 1:12 [1]: 103%
Percentage of IFN gamma secretion in MLR against rec hu IL-2 (=100%), dilution 1:120 [1]: 63%
Percentage of IFN gamma secretion in MLR against rec hu IL-2 (=100%), dilution 1:1200 [1]: 38%

B3: PD1-0078 (antibody, V domains shown)
VH: QVQLQQPGAELVKPGASVKMSCKASGYTFTSTWMHWVKQRPGQGLEWIGAIDPSDSYTTYNQKFKGKATLTVDTSSTTAYMQLSSLTSEDSAVYYCTRSPFDYWGQGTTLTVSS
VL: DIVMTQSHKFMSTSVGDRVSITCKASQDVSTAVAWYQQKPGQSPKLLIYSASYRYTGVPDRFTGSGSGTDFTFAISSVQAEDLAVYYCQQHYSHPFTFGSGTKLEIK
Percentage of IFN gamma secretion in MLR against rec hu IL-2 (=100%), dilution 1:12 [1]: 99%
Percentage of IFN gamma secretion in MLR against rec hu IL-2 (=100%), dilution 1:120 [1]: 72%
Percentage of IFN gamma secretion in MLR against rec hu IL-2 (=100%), dilution 1:1200 [1]: 21%

B4: PD1-0069 (antibody, V domains shown)
VH: QVQLQQSGPELVRPGVSVKISCKGSGYTFTDYAMHWVKQSHARTLEWIGVISTYSGDTNYNQKFKDKATMTVDKSSSTAYLELARMTSEDSAIYYCARLGITTGFAYWGQGTLVTVSA
VL: DIVLTQSPASLAVSLGQRATISCRASKGVSTSSYSFMHWYQQKPRQPPKLLIKYASYLESGVPARFSGSGSGTDFTLNIHPVEEEDAATYYCHHSREFPWTFGGGTKLEIK
Percentage of IFN gamma secretion in MLR against rec hu IL-2 (=100%), dilution 1:12 [1]: 76%
Percentage of IFN gamma secretion in MLR against rec hu IL-2 (=100%), dilution 1:120 [1]: 71%
Percentage of IFN gamma secretion in MLR against rec hu IL-2 (=100%), dilution 1:1200 [1]: 55%

B5: anti-PD1(0314) huIgG1 PGLALA (control M) (antibody, V domains shown)
VH: EVQLLESGGGLVQPGGSLRLSCAASGFSFSSYTMSWVRQAPGKGLEWVATISGGGRDIYYPDSVKGRFTISRDNSKNTLYLQMNSLRAEDTAVYYCVLLTGRVYFALDSWGQGTLVTVSS
VL: EIVLTQSPATLSLSPGERATLSCRASESVDTSDNSFIHWYQQKPGQSPRLLIYRSSTLESGIPARFSGSGSGTDFTLTISSLEPEDFAVYYCQQNYDVPWTFGQGTKVEIKR
notes: monospecific IgG1 of clone 0314; also called PD1 targeted human IgG control M
EC50 [2]: 0.3 nM
EC50 [3]: 0.33 nM
EC50 [4]: 1.59 nM
EC50 [5]: 0.71 nM
binding result [6]: no binding (tested: ~300 nM)
EC50 [7]: 0.03 nM
EC50 [8]: 0.03 nM
EC50 [9]: 0.33 nM
